B1: Anti-NKp46 IgG (antibody, V domains shown)
VH: QVQLVQSGAEVKKPGSSVKVSCKASGYTFSDYVINWVRQAPGQGLEWMGEIYPGSGTNYYNEKFKAKATITADKSTSTAYMELSSLRSEDTAVYYCARRGRYGLYAMDYWGQGTTVTVSS
VL: DIQMTQSPSSLSASVGDRVTITCRASQDISNYLNWYQQKPGKAPKLLIYYTSRLHSGVPSRFSGSGSGTDFTFTISSLQPEDIATYFCQQGNTRPWTFGGGTKVEIK
notes: human IgG1 heavy chain constant region (CH1, hinge, CH2, CH3); numbers count on: EU numbering; IgG1 with LALA; also called parental monospecific anti-NKp46 antibody; anti-NKp46 LALA IgG; source: Expi293 cells, transiently transfected, purified (MabSelect); copies: 2 + 2
B2: Anti-NKp46_AB_F06 (bispecific antibody, V domains shown)
VH: B1 VH
VL: B1 VL
notes: human IgG1 heavy chain constant region from its start to the PPSR motif before the AB loop of CH3; numbers count on: EU numbering; Gly4Ser linker; anti-EGFR bovine knob F06 (from an ultralong CDR-H3); human IgG1 heavy chain constant region from the motif after the AB loop of CH3 (printed as NGVS) to its end; as the light chain of m1; IgG1 with LALA; EEMTK of the AB loop replaced by G4S-knob-G4S; …
B3: Anti-NKp46_EF_F06 (bispecific antibody, V domains shown)
VH: B1 VH
VL: B1 VL
notes: human IgG1 heavy chain constant region from its start to the KLTV motif before the EF loop of CH3; numbers count on: EU numbering; Gly4Ser linker; anti-EGFR bovine knob F06 (from an ultralong CDR-H3); human IgG1 heavy chain constant region from the RWQQ motif after the EF loop of CH3 to its end; as the light chain of m1; IgG1 with LALA; DKS of the EF loop replaced by G4S-knob-G4S (results); …
B4: Anti-NKp46_AB_H05 (bispecific antibody, V domains shown)
VH: B1 VH
VL: B1 VL
notes: human IgG1 heavy chain constant region from its start to the PPSR motif before the AB loop of CH3; numbers count on: EU numbering; Gly4Ser linker; anti-EGFR bovine knob H05 (from an ultralong CDR-H3); human IgG1 heavy chain constant region from the motif after the AB loop of CH3 (printed as NGVS) to its end; as the light chain of m1; IgG1 with LALA; EEMTK of the AB loop replaced by G4S-knob-G4S; …
B5: Anti-NKp46_EF_H05 (bispecific antibody, V domains shown)
VH: B1 VH
VL: B1 VL
notes: human IgG1 heavy chain constant region from its start to the KLTV motif before the EF loop of CH3; numbers count on: EU numbering; Gly4Ser linker; anti-EGFR bovine knob H05 (from an ultralong CDR-H3); human IgG1 heavy chain constant region from the RWQQ motif after the EF loop of CH3 to its end; as the light chain of m1; IgG1 with LALA; DKS of the EF loop replaced by G4S-knob-G4S (results); …

target: T1, NKp46-His6 (Homo sapiens, UniProt O76036); assay: BLI; antibodies loaded at 5 µg/ml on anti-human-Fc (AHC) or anti-human-CH1 (FAB2G) biosensors; antigen in solution (EGFR 3.125-200 nM; NKp46 and NKp30 1.6-100 nM) in kinetics buffer (PBS, 0.1% Tween-20, 1% BSA); 25°C; 1:1 binding model; conditions: both partners purified
T1 construct: recombinant human NKp46 (natural cytotoxicity receptor); soluble recombinant receptor; probably the extracellular domain; also called (rh) NKp46; recombinant NKp46-His6; source: bought: AcroBiosystems
T1 sequence (O76036 22-258): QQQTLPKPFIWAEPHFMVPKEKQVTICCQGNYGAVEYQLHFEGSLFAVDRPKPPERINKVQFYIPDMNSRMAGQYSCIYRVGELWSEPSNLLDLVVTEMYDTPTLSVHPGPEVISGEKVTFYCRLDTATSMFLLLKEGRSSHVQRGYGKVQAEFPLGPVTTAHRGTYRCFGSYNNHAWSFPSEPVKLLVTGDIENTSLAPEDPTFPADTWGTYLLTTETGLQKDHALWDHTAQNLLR

Kd [nM]	Binder
1	B1
2	B2
3	B3
3.4	B4
3.6	B5

Reference: publication PMC10628450 (Frontiers in Immunology, 2023)
